This experiment has as its target Full-length human SIRT1 (His-tagged) (human) (UniProt Q96EB6). The experiment is described as follows: cell-based or functional assay.

Full-length human SIRT1 (His-tagged) (human), sequence (Q96EB6 2-747): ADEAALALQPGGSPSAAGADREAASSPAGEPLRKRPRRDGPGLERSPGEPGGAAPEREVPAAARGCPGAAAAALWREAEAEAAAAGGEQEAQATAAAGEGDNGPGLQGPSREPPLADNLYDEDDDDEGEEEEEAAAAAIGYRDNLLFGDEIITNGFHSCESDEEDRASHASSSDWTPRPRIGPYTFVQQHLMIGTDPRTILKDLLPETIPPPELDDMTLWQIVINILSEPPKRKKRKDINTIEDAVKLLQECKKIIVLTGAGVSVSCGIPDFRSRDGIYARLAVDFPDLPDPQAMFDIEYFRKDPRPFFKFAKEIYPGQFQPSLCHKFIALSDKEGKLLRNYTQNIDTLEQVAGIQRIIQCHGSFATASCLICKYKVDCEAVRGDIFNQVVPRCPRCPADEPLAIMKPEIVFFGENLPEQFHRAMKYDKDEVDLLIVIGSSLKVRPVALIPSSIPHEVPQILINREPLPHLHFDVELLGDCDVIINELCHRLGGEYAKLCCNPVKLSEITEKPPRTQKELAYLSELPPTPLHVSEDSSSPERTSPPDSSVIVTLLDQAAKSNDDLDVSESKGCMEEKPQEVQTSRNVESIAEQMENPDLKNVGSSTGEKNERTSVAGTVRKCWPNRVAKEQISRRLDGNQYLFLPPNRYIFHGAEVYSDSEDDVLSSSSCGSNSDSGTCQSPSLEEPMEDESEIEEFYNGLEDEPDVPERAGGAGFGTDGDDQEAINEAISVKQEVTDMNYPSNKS

In turn, synthetic Tat (aa 1-72) had a Tat concentration required for half maximal inhibition (IC50) of SIRT1; fluorescent deacetylation assay with acetylated p53 peptide (aa 379-382) of 3.5 µM.

(Values after patent publication US20140030295A1.)
